Test results published in patent US20240417469A1 (CONCEPT TO MEDICINE BIOTECH, published 2024).
Substitutions are numbered along the chain they refer to.

B1: Hu153A6B1-9 (antibody, V domains shown)
VH: EVQLQESGPGLVKPSETLSLTCTVSGGSISSYNIHWVRQPPGKGLEWMGRIRYNGDTSYNSALKSRLTISRDTSKNQFSLKLSSVTAADTAVYYCARGPYGGSREPLFDYWGQGTMVTVSS
VL: DIQMTQSPSSLSASVGDRVTITCKTSQNINKYLNWFQQKPGKAPKLLIYTTNNLQTGIPSRFSGSGSGTDFTLTISSLQPEDFATYYCLQHGSGYTFGQGTKLEIK
notes: humanized mAb
B2: Hu192A7B9-16 (antibody, V domains shown)
VH: B1 VH with I34V, I51M, A96T, Y100R, S103Y, R104Y, E105S, P106A
VL: B1 VL with T25A, K31R, F36Y, Y49S, T50I, T51A, N53S, G92N, G94W
notes: humanized mAb
B3: Hu192A7B9-9 (antibody, V domains shown)
VH: B1 VH with I34V, I51M, Y100R, S103Y, R104Y, E105S, P106A
VL: B1 VL with T25A, K31R, F36Y, Y49S, T50I, T51A, N53S, I58V, G92N, G94W
notes: humanized mAb
B4: Hu192A7B9-5 (antibody, V domains shown)
VH: B1 VH with G27F, I34V, I51M, F78V, A96T, Y100R, S103Y, R104Y, E105S, P106A
VL: B1 VL with T25A, K31R, F36Y, T50I, T51A, N53S, I58V, G92N, G94W
notes: humanized mAb
B5: Hu192A7B9-21 (antibody, V domains shown)
VH: B1 VH with I34V, I51M, Y100R, S103Y, R104Y, E105S, P106A
VL: DIQMTQSPSSLSASVGDRVTITCKASQNINRYLNWYQQKPGKAPKVLISIANSLQTGIPSRFSGSGSGTDFTLTISSLQPEDFATYFCLQHNSWYTFGQGTKLEIK
notes: humanized mAb
B6: Hu192A7B9-15 (antibody, V domains shown)
VH: B1 VH with I34V, I51M, Y100R, S103Y, R104Y, E105S, P106A
VL: B5 VL with V46L, F87Y
notes: humanized mAb
B7: Hu192A7B9-6 (antibody, V domains shown)
VH: EVQLQESGPGLVKPSETLSLTCTVSGFSLTSYNVHWVRQPPGKGLEWMGRMRYNGDTSYNSALKSRLTISRDTSKNQVSLKLSSVTAADTAVYYCTRGPRGGYYSALFDYWGQGTMVTVSS
VL: B5 VL with V46L, S49Y, I58V, F87Y
notes: humanized mAb
B8: Hu192A7B9-13 (antibody, V domains shown)
VH: B7 VH with F27G, L29I, T30S, V37I, M48I, L67V, R71V, V78F, T96A
VL: B5 VL with V46L, F87Y
notes: humanized mAb
B9: Hu192A7B9-19 (antibody, V domains shown)
VH: B7 VH with F27G, L29I, T30S, V37I, M48I, L67V, R71V, V78F, T96A
VL: B5 VL
notes: humanized mAb
B10: Hu192A7B9-20 (antibody, V domains shown)
VH: B7 VH with F27G, L29I, T30S, M48I, L67V, V78F, T96A
VL: B5 VL
notes: humanized mAb
B11: Hu192A7B9-17 (antibody, V domains shown)
VH: B7 VH with L29I, T30S
VL: B5 VL with V46L, F87Y
notes: humanized mAb
B12: Hu192A7B9-8 (antibody, V domains shown)
VH: B7 VH with F27G, L29I, T30S, M48I, L67V, V78F, T96A
VL: B5 VL with V46L, I58V, F87Y
notes: humanized mAb
B13: Hu192A7B9-10 (antibody, V domains shown)
VH: B7 VH with F27G, L29I, T30S, V78F
VL: B5 VL with V46L, I58V, F87Y
notes: humanized mAb
B14: Hu192A7B9-23 (antibody, V domains shown)
VH: B7 VH with L29I, T30S
VL: B5 VL
notes: humanized mAb
B15: Hu192A7B9-22 (antibody, V domains shown)
VH: B7 VH with F27G, L29I, T30S, V78F
VL: B5 VL
notes: humanized mAb
B16: Hu192A7B9-18 (antibody, V domains shown)
VH: B7 VH
VL: B5 VL with V46L, F87Y
notes: humanized mAb
B17: Hu192A7B9-11 (antibody, V domains shown)
VH: B7 VH with L29I, T30S
VL: B5 VL with V46L, I58V, F87Y
notes: humanized mAb
B18: Hu192A7B9-14 (antibody, V domains shown)
VH: B7 VH with F27G, L29I, T30S, M48I, L67V, V78F, T96A
VL: B5 VL with V46L, F87Y
notes: humanized mAb
B19: Hu192A7B9-24 (antibody, V domains shown)
VH: B7 VH
VL: B5 VL
notes: humanized mAb
B20: Hu192A7B9-7 (antibody, V domains shown)
VH: B7 VH with F27G, L29I, T30S, V37I, M48I, L67V, R71V, V78F, T96A
VL: B5 VL with V46L, I58V, F87Y
notes: humanized mAb
B21: Hu192A7B9-12 (antibody, V domains shown)
VH: B7 VH
VL: B5 VL with V46L, I58V, F87Y
notes: humanized mAb
B22: Hu192A7B9-1 (antibody, V domains shown)
VH: B7 VH with F27G, L29I, T30S, V37I, M48I, L67V, R71V, V78F, T96A
VL: B5 VL with V46L, S49Y, I58V, F87Y
notes: humanized mAb
B23: Hu192A7B9-4 (antibody, V domains shown)
VH: B7 VH with F27G, L29I, T30S, V78F
VL: B5 VL with V46L, S49Y, I58V, F87Y
notes: humanized mAb
B24: Hu192A7B9-2 (antibody, V domains shown)
VH: B7 VH with F27G, L29I, T30S, M48I, L67V, V78F, T96A
VL: B5 VL with V46L, S49Y, I58V, F87Y
notes: humanized mAb
B25: Hu192A7B9-3 (antibody, V domains shown)
VH: B7 VH with F27G, L29I, T30S, V78F, T96A
VL: B5 VL with V46L, S49Y, I58V, F87Y
notes: humanized mAb

biological target: T1, human CD3 on cells (human PBMC; Jurkat TCR/CD3 NFAT reporter cells) (human, UniProt P07766 23-207; P04234 22-171; P09693 23-182); assay: cell-based or functional assay
T1 sequence (P07766 23-207, chain 1 of 3): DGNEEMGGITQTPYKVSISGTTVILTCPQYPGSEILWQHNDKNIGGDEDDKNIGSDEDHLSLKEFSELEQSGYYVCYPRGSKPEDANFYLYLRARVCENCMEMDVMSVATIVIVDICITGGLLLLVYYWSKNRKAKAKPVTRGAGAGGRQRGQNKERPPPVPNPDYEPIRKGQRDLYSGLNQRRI
T1 sequence (P04234 22-171, chain 2 of 3): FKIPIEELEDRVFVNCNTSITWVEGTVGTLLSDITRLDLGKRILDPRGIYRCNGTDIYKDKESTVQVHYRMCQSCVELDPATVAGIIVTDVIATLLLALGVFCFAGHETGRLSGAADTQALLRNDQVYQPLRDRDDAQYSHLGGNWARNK
T1 sequence (P09693 23-182, chain 3 of 3): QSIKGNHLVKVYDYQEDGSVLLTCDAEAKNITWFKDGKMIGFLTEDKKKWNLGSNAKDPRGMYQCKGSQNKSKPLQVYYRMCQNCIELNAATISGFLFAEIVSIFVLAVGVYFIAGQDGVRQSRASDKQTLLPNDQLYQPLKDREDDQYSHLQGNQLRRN

Binder | % of SP34 [%] | Emax
B1 | 73.6 | 4310

biological target: T2, recombinant CD3D&E protein (human CD3-his tag) (human, UniProt P04234 22-105; P07766 23-126, limits assumed); assay: SPR Biacore, Ab captured on Protein A;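 also: humanized antibodies on a Protein A chip, human CD3-his analyte flowed over in serial dilutions for 3 min, dissociation tracked 120–360 s on a Biacore T200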
T2 construct: Analyte in Biacore; also called CD3D&E-His; CD3d&ε-His
T2 sequence (P04234 22-105 limits assumed, chain 1 of 2): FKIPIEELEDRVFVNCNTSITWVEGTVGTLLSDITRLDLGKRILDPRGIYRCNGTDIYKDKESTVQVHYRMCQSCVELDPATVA
T2 sequence (P07766 23-126 limits assumed, chain 2 of 2): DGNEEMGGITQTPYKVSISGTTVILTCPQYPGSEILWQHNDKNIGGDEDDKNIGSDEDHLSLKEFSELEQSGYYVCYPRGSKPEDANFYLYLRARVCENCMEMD

Binder | Kd [µM] | koff [s⁻¹] | kon [M⁻¹ s⁻¹]
B1 | 0.0617 | 0.0344 | 558000
B2 | 0.146 | 0.0143 | 97600
B3 | 0.0927 | 0.0204 | 220000
B4 | 0.103 | 0.0119 | 116000
B5 | 0.0551 | 0.00499 | 90600
B6 | 0.0409 | 0.00741 | 181000
B7 | 0.283 | 0.024 | 84900
B8 | 0.022 | 0.00631 | 286000
B9 | 0.0345 | 0.00543 | 157000
B10 | 0.0603 | 0.00561 | 93100
B11 | 0.0648 | 0.00532 | 82200
B12 | 0.0589 | 0.0475 | 805000
B13 | 0.122 | 0.0144 | 118000
B14 | 0.0123 | 0.000862 | 70200
B15 | 0.055 | 0.00462 | 83900
B16 | 0.056 | 0.00317 | 56500
B17 | 0.0777 | 0.00449 | 57800
B18 | 0.0867 | 0.0179 | 206000
B19 | 0.00921 | 0.000594 | 64500
B20 | 0.0796 | 0.0151 | 190000
B21 | 0.0581 | 0.00317 | 54600

biological target: T1, human CD3 on cells (human PBMC; Jurkat …); assay: cell-based or functional assay; remark: another data set of the same source

Binder | CD3-NFAT Activity by CD3 mAb [% SP34]
B1 | > 50
B22 | ≤ 50
B2 | > 50
B23 | ≤ 50
B24 | ≤ 50
B3 | > 50
B4 | > 50
B5 | > 50
B6 | > 50
B7 | > 50
B25 | ≤ 50
B8 | ≤ 50
B9 | > 50
B10 | > 50
B11 | > 50
B12 | > 50
B13 | > 50
B14 | > 50
B15 | > 50
B16 | > 50
B17 | > 50
B18 | > 50
B19 | > 50
B20 | ≤ 50
B21 | > 50

biological target: T3, human CD3 protein (human, UniProt P07766 23-126; P04234 22-105); assay: ELISA, plate-coated CD3;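 also: binding to plate-immobilized human CD3 protein, bound antibody detected with peroxidase-labelled anti-human IgG and TMB, read as absorbance at 450 nm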
T3 construct: ELISA coating protein; also called Human CD3D & CD3E Heterodimer Protein
T3 sequence (P07766 23-126 limits assumed, chain 1 of 2): as the sequence (P07766 23-126 limits assumed, chain 2 of 2) above
T3 sequence (P04234 22-105 limits assumed, chain 2 of 2): as the sequence (P04234 22-105 limits assumed, chain 1 of 2) above

Binder | EC50 [ng/mL]
B1 | 3.35
B22 | 148
B2 | 7.46
B23 | 22.8
B24 | 194
B3 | 5.58
B4 | 5.52
B5 | 5.46
B6 | 28.8
B7 | 8.59
B25 | 86.2
B8 | 14.5
B9 | 4.98
B10 | 5.15
B11 | 4.46
B12 | 6.42
B13 | 5.08
B14 | 15.8
B15 | 7.12
B16 | 8.83
B17 | 7.95
B18 | 5.02
B19 | 20.2
B20 | 22.6
B21 | 9.74
